For five molecules, binding result and Kd results are on record in paper PMC2196189 (The Journal of Cell Biology, 2001).

One experiment deals with GST–Nup60p (S. cerevisiae, UniProt P39705 1-539). In words: pull-down.
A further experiment has as its target T1, Kap95p (recombinant) (S. cerevisiae, UniProt Q06142 1-861).
T1 sequence (looked up): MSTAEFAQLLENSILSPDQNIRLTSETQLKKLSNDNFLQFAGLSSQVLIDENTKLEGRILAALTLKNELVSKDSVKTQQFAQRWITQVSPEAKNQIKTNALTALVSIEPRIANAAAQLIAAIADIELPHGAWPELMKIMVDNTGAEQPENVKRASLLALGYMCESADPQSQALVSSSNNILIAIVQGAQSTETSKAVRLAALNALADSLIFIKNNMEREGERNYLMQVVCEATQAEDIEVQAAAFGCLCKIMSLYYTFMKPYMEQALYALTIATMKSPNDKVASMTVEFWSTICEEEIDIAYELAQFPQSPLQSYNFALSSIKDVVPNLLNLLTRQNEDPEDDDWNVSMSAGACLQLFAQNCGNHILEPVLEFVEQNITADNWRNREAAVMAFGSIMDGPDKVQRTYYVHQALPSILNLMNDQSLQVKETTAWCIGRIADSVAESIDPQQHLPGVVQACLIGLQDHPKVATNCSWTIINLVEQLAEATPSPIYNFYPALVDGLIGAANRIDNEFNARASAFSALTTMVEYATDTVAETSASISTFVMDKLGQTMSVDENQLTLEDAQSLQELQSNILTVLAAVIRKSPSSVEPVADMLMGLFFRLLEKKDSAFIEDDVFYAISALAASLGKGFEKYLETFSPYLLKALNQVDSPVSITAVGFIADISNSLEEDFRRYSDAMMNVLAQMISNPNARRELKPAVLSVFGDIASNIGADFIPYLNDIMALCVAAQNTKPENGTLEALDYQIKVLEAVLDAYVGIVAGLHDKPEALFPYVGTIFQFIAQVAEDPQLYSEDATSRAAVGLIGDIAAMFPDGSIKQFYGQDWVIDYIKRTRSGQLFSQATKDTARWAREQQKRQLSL
In words: pull-down.

Experiment [1] has as its target T2, Kap95p–Kap60p heterodimers (recombinant) (S. cerevisiae, UniProt Q06142 1-861; Q02821 1-542).
T2 sequence (looked up) 1: T1 sequence (looked up)
T2 sequence (looked up) 2: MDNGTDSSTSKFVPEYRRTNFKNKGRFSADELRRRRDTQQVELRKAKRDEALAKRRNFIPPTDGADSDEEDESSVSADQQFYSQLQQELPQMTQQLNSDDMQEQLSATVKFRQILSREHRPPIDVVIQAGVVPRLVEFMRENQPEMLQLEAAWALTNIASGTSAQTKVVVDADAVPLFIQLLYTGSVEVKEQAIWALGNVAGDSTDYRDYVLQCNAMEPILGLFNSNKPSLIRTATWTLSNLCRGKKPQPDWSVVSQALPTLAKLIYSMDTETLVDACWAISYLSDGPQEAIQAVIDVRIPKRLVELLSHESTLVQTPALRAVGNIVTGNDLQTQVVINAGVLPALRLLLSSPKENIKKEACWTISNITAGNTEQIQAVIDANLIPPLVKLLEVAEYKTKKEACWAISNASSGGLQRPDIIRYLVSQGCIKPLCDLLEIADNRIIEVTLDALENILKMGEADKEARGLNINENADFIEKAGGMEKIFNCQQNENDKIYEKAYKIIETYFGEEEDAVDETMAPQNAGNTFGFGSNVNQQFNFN
Put plainly: pull-down.

Experiment [2] addresses Nup2p (construct of the data-not-shown experiments not stated) (S. cerevisiae, UniProt P32499 1-720). Put plainly: radioligand binding.

Chain of Nup2p (construct of the data-not-shown experiments not stated) (P32499 whole entry): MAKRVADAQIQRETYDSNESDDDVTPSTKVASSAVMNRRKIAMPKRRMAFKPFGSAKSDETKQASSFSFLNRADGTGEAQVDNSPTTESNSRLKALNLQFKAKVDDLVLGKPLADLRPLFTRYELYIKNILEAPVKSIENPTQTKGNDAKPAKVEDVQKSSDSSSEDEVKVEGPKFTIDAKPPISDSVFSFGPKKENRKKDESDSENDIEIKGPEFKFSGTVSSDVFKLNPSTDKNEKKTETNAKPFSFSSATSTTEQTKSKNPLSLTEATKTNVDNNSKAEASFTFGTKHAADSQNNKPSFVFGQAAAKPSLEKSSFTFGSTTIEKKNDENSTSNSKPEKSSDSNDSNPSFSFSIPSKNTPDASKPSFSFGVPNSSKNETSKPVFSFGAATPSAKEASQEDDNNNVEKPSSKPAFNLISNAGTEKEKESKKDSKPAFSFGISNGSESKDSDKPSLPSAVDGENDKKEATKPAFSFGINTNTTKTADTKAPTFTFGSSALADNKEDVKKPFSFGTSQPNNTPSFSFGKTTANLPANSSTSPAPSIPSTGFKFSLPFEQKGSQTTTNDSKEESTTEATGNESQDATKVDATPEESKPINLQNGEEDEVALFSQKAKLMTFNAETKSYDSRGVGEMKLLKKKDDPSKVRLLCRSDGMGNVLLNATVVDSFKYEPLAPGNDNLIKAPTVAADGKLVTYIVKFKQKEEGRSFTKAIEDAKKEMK

B1: Prp20p (natural protein)
chain: MVKRTVATNGDASGAHRAKKMSKTHASHIINAQEDYKHMYLSVQPLDIFCWGTGSMCELGLGPLAKNKEVKRPRLNPFLPRDEAKIISFAVGGMHTLALDEESNVWSWGCNDVGALGRDTSNAKEQLKDMDADDSSDDEDGDLNELESTPAKIPRESFPPLAEGHKVVQLAATDNMSCALFSNGEVYAWGTFRCNEGILGFYQDKIKIQKTPWKVPTFSKYNIVQLAPGKDHILFLDEEGMVFAWGNGQQNQLGRKVMERFRLKTLDPRPFGLRHVKYIASGENHCFALTKDNKLVSWGLNQFGQCGVSEDVEDGALVTKPKRLALPDNVVIRSIAAGEHHSLILSQDGDLYSCGRLDMFEVGIPKDNLPEYTYKDVHGKARAVPLPTKLNNVPKFKSVAAGSHHSVAVAQNGIAYSWGFGETYAVGLGPFEDDTEVPTRIKNTATQDHNIILVGCGGQFSVSGGVKLSDEDAEKRADEMDD
Turning to B1, the binding result with GST–Nup60p was “binds”.

B2: GST–Nup60p (aa 188–388) (domain or fragment, S. cerevisiae, UniProt P39705 188-388, looked up)
chain: PTFNPKYDTSNASMNTTLGSIGSRKYSFNYSSLPSPYKTTVYRYSAAKKIPDTYTANTSAQSIASAKSVRSGVSKSAPSKKISNTAAALVSLLDENDSKKNNAASELANPYSSYVSQIRKHKRVSPNAAPRQEISEEETTVKPLFQNVPEQGEEPMKQLNATKISPSAPSKDSFTKYKPARSSSLRSNVVVAETSPEKKDG
With B2, in the experiment with Kap95p (recombinant), the binding result is given as “binds”.

B3: GST–Nup60p (aa 1–187) (domain or fragment, S. cerevisiae, UniProt P39705 1-187, looked up)
chain: MHRKSLRRASATVPSAPYRKQIISNAHNKPSLFSKIKTFFTQKDSARVSPRNNVANKQPRNESFNRRISSMPGGYFHSEISPDSTVNRSVVVSAVGEARNDIENKEEEYDETHETNISNAKLANFFSKKGNEPLSEIEIEGVMSLLQKSSKSMITSEGEQKSAEGNNIDQSLILKESGSTPISISNA
On to B3, for which, in the experiment with Kap95p (recombinant), the binding result was “binds”.

B4: GST–Nup60p (aa 389–539) (domain or fragment, S. cerevisiae, UniProt P39705 389-539, looked up)
chain: GDKPPSSAFNFSFNTSRNVEPTENAYKSENAPSASSKEFNFTNLQAKPLVGKPKTELTKGDSTPVQPDLSVTPQKSSSKGFVFNSVQKKSRSNLSQENDNEGKHISASIDNDFSEEKAEEFDFNVPVVSKQLGNGLVDENKVEAFKSLYTF
In the case of B4, in experiment [1], the binding result is on record as “binds”.

B5: Kap60p (recombinant) (natural protein, S. cerevisiae, UniProt Q02821 1-542, looked up)
chain: T2 sequence (looked up) 2
One may read the Kd as the constant that tells how readily two partners part at equilibrium. Low values mean tighter binding, high ones weaker binding. In the case of B5, in experiment [2], the Kd is around 200 pM.
